Laboratory results reported in US12385058B2, “Herbicide tolerance protein, encoding gene thereof and use thereof” (Beijing Dabeinong Biotechnology Co., Ltd., priority 2018, dated 2025).
Changes are numbered by the printed parent chain.

B1: ALT01M1: herbicide tolerant protein, SEQ ID NO: 7; ALT01 with glycine to alanine at position 176 (protein)
chain: METDKKTGTSRRSFVKAAGTGAIGIATLPLSTATAFAETDNVELAQSKRKVVLAEQGSFYIGGRTVTGPGKFDPSKPVIPYSNEGATFYINQMYVNFQAPVRPRGLPLVFWHGGGLTGHIWESTPDGRPGFQTLFVQDRHTVYTIDQPGRGRGNIPTFNGPFGQLEEESIVNTVTANSSKEGAWVRDRLGPAPGQFFENSQFPRGYEDNYFKEMGFSPSISSDEIVDAVVKLVTHIGPCVLVTHSASGVLGMRVATHAKNVRGIVAYEPATSIFPKGKVPEIPPLADKKSQIFPPFEIQESYFKKLAKIPIQFVFGDNIPKNPKSAYWFLDWWRVTRYAHSLSLEAINKLGGQASLLDLPTAGLRGNTHFPFTDRNNVQVASLLSDFLGKHGLDQNES
modifications: the amino acid sequence of the herbicide tolerant protein ALT01M1
B2: ALT01M2: herbicide tolerant protein, SEQ ID NO: 11; ALT01 with serine to valine at position 178 (protein)
chain: B1 chain with A176G, S178V
modifications: the amino acid sequence of the herbicide tolerant protein ALT01M2
B3: ALT01M3: herbicide tolerant protein, SEQ ID NO: 15; ALT01 mutated at positions 80, 81, 176, 178 and 182 (protein)
chain: B1 chain with P80R, Y81A, S178V, G182R
modifications: the amino acid sequence of the herbicide tolerant protein ALT01M3
B4: ALT02M1-02: nucleotide sequence SEQ ID NO: 26 encoding ALT02M1, based on maize codon usage bias (nucleic acid)
DNA: ATGGAGACTGATAACGTGGAGCTGGCGCAGAGCAAGAGGAAGGTGGTTCTGGCTGAGCAGGGGTCGTTCTACATTGGGGGGCGGACTGTGACCGGGCCCGGCAAGTTCGACCCATCGAAGCCTGTCATTCCGTACTCTAACGAGGGCGCTACGTTCTACATCAACCAGATGTACGTGAATTTCCAGGCTCCCGTCCGCCCAAGGGGCCTCCCACTGGTGTTCTGGCACGGCGGGGGCCTGACAGGCCATATCTGGGAGTCCACTCCAGATGGCCGCCCAGGGTTCCAGACACTCTTCGTTCAGGACAGGCACACAGTGTACACTATTGATCAGCCAGGGAGGGGCAGGGGGAACATCCCTACCTTCAATGGCCCATTCGGGCAGCTGGAGGAGGAGTCCATCGTGAACACCGTCACGGCGAATTCCAGCAAGGAGGGGGCTTGGGTCAGGGACCGGCTCGGCCCGGCCCCAGGGCAGTTCTTCGAGAACTCTCAGTTCCCCCGGGGCTACGAGGATAATTACTTCAAGGAGATGGGCTTCTCACCATCCATCTCGTCTGACGAGATTGTCGATGCCGTGGTCAAGCTCGTTACCCACATCGGCCCTTGCGTTCTGGTGACGCATAGCGCTTCGGGCGTCCTCGGGATGAGGGTTGCTACACATGCGAAGAACGTTCGCGGCATCGTGGCTTACGAGCCGGCCACTTCCATTTTCCCCAAGGGCAAGGTGCCAGAGATCCCACCACTGGCCGACAAGAAGTCACAGATCTTCCCACCTTTCGAGATTCAGGAGTCCTACTTCAAGAAGCTCGCTAAGATCCCCATTCAGTTCGTGTTCGGCGACAACATTCCTAAGAATCCGAAGAGCGCGTACTGGTTCCTGGATTGGTGGCGCGTCACGCGCTACGCGCACTCTCTCTCACTGGAGGCTATCAACAAGCTCGGGGGCCAGGCCTCGCTCCTGGACCTCCCTACCGCTGGCCTGAGGGGGAACACCCATTTCCCGTTCACGGATCGGAACAATGTCCAGGTTGCGTCCCTCCTGAGCGATTTCCTCGGCAAGCACGGGCTGGATCAGAATGAGTCTAAGCTCGCTGCGGCGCTGGAGTGA
modifications: the ALT02M1-02 nucleotide sequence encoding the amino acid sequence corresponding to the herbicide tolerant protein ALT02M1 and based on the maize codon usage bias
B5: ALT02M3-02: nucleotide sequence SEQ ID NO: 34 encoding ALT02M3, based on maize codon usage bias (nucleic acid)
DNA: B4 DNA with C131G, T133G, A134C, C135G, T424G, C425T, C426G, G436C
modifications: the ALT02M3-02 nucleotide sequence encoding the amino acid sequence corresponding to the herbicide tolerant protein ALT02M3 and based on the maize codon usage bias
B6: ALT02M2-02: nucleotide sequence SEQ ID NO: 30 encoding ALT02M2, based on maize codon usage bias (nucleic acid)
DNA: B4 DNA with C419G, G420C, T424G, C425T, C426G
modifications: the ALT02M2-02 nucleotide sequence encoding the amino acid sequence corresponding to the herbicide tolerant protein ALT02M2 and based on the maize codon usage bias
B7: ALT02-02: nucleotide sequence SEQ ID NO: 22 encoding ALT02, based on maize codon usage bias (nucleic acid)
DNA: B4 DNA with C419G, G420C
modifications: the ALT02-02 nucleotide sequence encoding the amino acid sequence corresponding to the herbicide tolerant protein ALT02 and based on the maize codon usage bias

How the values were obtained:
[1] = assay type: biochemical; settings: for specific enzyme activity, bensulfuron-methyl / specific enzyme activity, chlorimuron-ethyl / specific enzyme activity, metsulfuron-methyl / specific enzyme activity, thifensulfuron-methyl / specific enzyme activity, tribenuron-methyl: 0.2 μg enzyme, 0.2 mM substrate, pH 7.0, 30° C., 20 min
Method: (§1) Each reaction was timed beginning with the addition of reactive enzyme, and was terminated with 1 mL of dichloromethane. The organic phase after delamination was dehydrated with anhydrous sodium sulfate.
(§2) The above dehydrated reaction solution was blown dry with nitrogen and filtered by adding 1 mL of methanol, and 20 μL of the filtrate was subjected to liquid chromatography-mass spectrometry (LC-MS). High performance liquid chromatography (HPLC) conditions were as follows: mobile phase being methanol:water (80:20, V/V), Zorbax XDB-C18 chromatographic column (3.5 μm, 2.1×50 mm, Agilent, USA), column temperature being room temperature, UV detector, with a detection wavelength of 255 nm, a sample injection volume of 20 μL, and a flow rate of 0.25 mL/min. The primary ion mass spectrometry conditions were as follows: ion detection mode being multi-reactive ion detection; ion polarity being negative ion; ionization mode being electrospray ionization; a capillary voltage of 4000 volts; a dry gas temperature of 330° C., a flow rate of 10 L/min, an atomizing gas pressure of 35 psi, a collision voltage of 135 volts; and a mass scan range of 300-500 m/z. The secondary ion mass spectrometry conditions were as follows: a collision voltage of 90 volts; a mass scanning range of 30-400 m/z, and other conditions being the same as those of the primary ion mass spectrometry. It was identified by LC-MS that the metabolite of thifensulfuron-methyl was thiophene sulfonic acid, and the metabolite of metsulfuron-methyl, chlorimuron-ethyl, bensulfuron-methyl, sulfometuron-methyl or tribenuron-methyl was its corresponding sulfonic acid. The amount of the generated thiophene sulfonic acid (metabolite) was detected using high performance liquid chromatography (HPLC).

[2] = Degradation of sulfometuron-methyl by purified herbicide tolerant proteins (enzymatic activity, HPLC); assay type: biochemical; settings: 0.2 μg enzyme, 0.2 mM substrate, pH 7.0, 30° C., 20 min
Method: as §1, §2

maize plants = assay: Herbicide tolerance of transgenic maize T1 plants (spraying, damage degree); assay type: in vivo; settings: sprayed with tribenuron-methyl 144 g ai/ha, eight-fold field concentration
Method: The degree of damage caused by the herbicide was measured for each plant according to the plant growth status 3 days after spraying (3 DAT), 7 days after spraying (7 DAT), 14 days after spraying (14 DAT) and 21 days after spraying (21 DAT): a growth status equivalent to that of the untreated plants is defined as having a damage degree of 0%; the case where leaves are locally chlorotic and yellow but the normal plant growth is substantially not affected is defined as having a damage degree of 50%; and the case where the whole plant is purple and dying is defined as having a damage degree of 100%. The maize plants into which the ALT02M1-02 nucleotide sequence was introduced were of three strains in total (S15, S16 and S17), the maize plants into which the ALT02M2-02 nucleotide sequence was introduced were of three strains in total (S18, S19 and S20), the maize plants into which the ALT02M3-02 nucleotide sequence was introduced were of three strains in total (S21, S22 and S23), the maize plants into which the ALT02-02 nucleotide sequence was introduced were of three strains in total (S24, S25 and S26), the control maize plants were of two strains in total (S27 and S28), and the wild-type maize plants were of one strain in total (CK2); and 10-15 plants were selected from each strain and tested.

Row | Molecule | efficiency of degrading bensulfuron-methyl, fold of ALT01 [1] [fold] | efficiency of degrading thifensulfuron-methyl, fold of ALT01 [1] [fold] | specific enzyme activity, bensulfuron-methyl [1] [µmol/min/mg] | specific enzyme activity, chlorimuron-ethyl [1] [µmol/min/mg] | specific enzyme activity, metsulfuron-methyl [1] [µmol/min/mg] | specific enzyme activity, thifensulfuron-methyl [1] [µmol/min/mg] | specific enzyme activity, tribenuron-methyl [1] [µmol/min/mg] | specific enzyme activity, sulfometuron-methyl [2] [µmol/min/mg] | efficiency of degrading chlorimuron-ethyl, fold of ALT01 [1] [fold] | efficiency of degrading metsulfuron-methyl, fold of ALT01 [1] [fold] | herbicide tolerance compared with maize plants into which ALT02-02 was introduced (maize plants) | herbicide tolerance imparted to transgenic maize plants (maize plants)
1 | B1 | 2.3 | 3.3 | 3.9 | 10.4 | 2.2 | 89.9 | 3.1 | 5.4 |  |  |  | 
2 | B2 | 1.4 | 3.9 | 2.4 | 9.0 | 1.2 | 106.0 | 10.8 | 3.5 |  |  |  | 
3 | B3 |  |  | 0.68 | 38.4 | 4.2 | 17.8 | 3.3 | 1.1 | 14.2 | 2.1 |  | 
4 | B4 |  |  |  |  |  |  |  |  |  |  | significantly increased tolerance to benzenesulfonic acid | impart transgenic maize plants with the tolerance to benzenesulfonic acid
5 | B5 |  |  |  |  |  |  |  |  |  |  | significantly increased tolerance to benzenesulfonic acid | impart transgenic maize plants with the tolerance to benzenesulfonic acid
6 | B6 |  |  |  |  |  |  |  |  |  |  | significantly increased tolerance to benzenesulfonic acid | impart transgenic maize plants with the tolerance to benzenesulfonic acid
7 | B7 |  |  |  |  |  |  |  |  |  |  |  | impart transgenic maize plants with the tolerance to benzenesulfonic acid
